In FireProtDB (doi:10.1021/bi000415x):

B1: Protein P-30, P22069 (parent)
chain: QDWLTFQKKHITNTRDVDCDNIMSTNLFHCKDKNTFIYSRPEPVKAICKGIIASKNVLTTSEFYLSDCNVTSRPCKYKLKKSTNKFCVTCENQAPVHFVGVGSC

Variants of: B1
Details: Lithobates pipiens; pH 2; 25 °C; Thermal; DSC; MES 100 mM; reversible: yes; structure 1ONC; whole UniProt chain shown

Row | Variant | ddG of mutation (higher = less stable) [kcal/mol] | unfolding free energy [kcal/mol]
1 | QDWLTFQKKHITNTRDVDCDNILSTNLFHCKDKNTFIYSRPEPVKAICKGIIASKNVLTTSEFYLSDCNVTSRPCKYKLKKSTNKFCVTCENQAPVHFVGVGSC [M23L] | 2.51 | 6.33

Same assay, conditions: Lithobates pipiens; pH 2; Thermal; DSC; MES 100 mM; reversible: yes; structure 1ONC; whole UniProt chain shown

Row | Variant | Tm [°C] | change of melting temperature, mutant - wild type (higher = more stable) [°C] | heat capacity change of unfolding [kcal/mol/K] | unfolding enthalpy (calorimetric) [kcal/mol] | unfolding enthalpy (van 't Hoff) [kcal/mol]
2 | QDWLTFQKKHITNTRDVDCDNILSTNLFHCKDKNTFIYSRPEPVKAICKGIIASKNVLTTSEFYLSDCNVTSRPCKYKLKKSTNKFCVTCENQAPVHFVGVGSC [M23L] | 62.2 | -7.3 | 1.24 | 84.8 | 88.4

Same assay, conditions: Lithobates pipiens; pH 2.5; 25 °C; Thermal; DSC; MES 100 mM; reversible: yes; structure 1ONC; whole UniProt chain shown

Row | Variant | ddG of mutation (higher = less stable) [kcal/mol] | unfolding free energy [kcal/mol]
3 | QDWLTFQKKHITNTRDVDCDNILSTNLFHCKDKNTFIYSRPEPVKAICKGIIASKNVLTTSEFYLSDCNVTSRPCKYKLKKSTNKFCVTCENQAPVHFVGVGSC [M23L] | 2.29 | 7.24

Same assay, conditions: Lithobates pipiens; pH 2.5; Thermal; DSC; MES 100 mM; reversible: yes; structure 1ONC; whole UniProt chain shown

Row | Variant | Tm [°C] | change of melting temperature, mutant - wild type (higher = more stable) [°C] | heat capacity change of unfolding [kcal/mol/K] | unfolding enthalpy (calorimetric) [kcal/mol] | unfolding enthalpy (van 't Hoff) [kcal/mol]
4 | QDWLTFQKKHITNTRDVDCDNILSTNLFHCKDKNTFIYSRPEPVKAICKGIIASKNVLTTSEFYLSDCNVTSRPCKYKLKKSTNKFCVTCENQAPVHFVGVGSC [M23L] | 65.8 | -6.8 | 1.51 | 90.8 | 87.3

Same assay, conditions: Lithobates pipiens; pH 3; 25 °C; Thermal; DSC; MES 100 mM; reversible: yes; structure 1ONC; whole UniProt chain shown

Row | Variant | ddG of mutation (higher = less stable) [kcal/mol] | unfolding free energy [kcal/mol]
5 | QDWLTFQKKHITNTRDVDCDNILSTNLFHCKDKNTFIYSRPEPVKAICKGIIASKNVLTTSEFYLSDCNVTSRPCKYKLKKSTNKFCVTCENQAPVHFVGVGSC [M23L] | 2.77 | 8.03

Same assay, conditions: Lithobates pipiens; pH 3; Thermal; DSC; MES 100 mM; reversible: yes; structure 1ONC; whole UniProt chain shown

Row | Variant | Tm [°C] | change of melting temperature, mutant - wild type (higher = more stable) [°C] | heat capacity change of unfolding [kcal/mol/K] | unfolding enthalpy (calorimetric) [kcal/mol] | unfolding enthalpy (van 't Hoff) [kcal/mol]
6 | QDWLTFQKKHITNTRDVDCDNILSTNLFHCKDKNTFIYSRPEPVKAICKGIIASKNVLTTSEFYLSDCNVTSRPCKYKLKKSTNKFCVTCENQAPVHFVGVGSC [M23L] | 68.9 | -7.6 | 1.39 | 95.6 | 94.7

Same assay, conditions: Lithobates pipiens; pH 3.5; 25 °C; Thermal; DSC; MES 100 mM; reversible: yes; structure 1ONC; whole UniProt chain shown

Row | Variant | ddG of mutation (higher = less stable) [kcal/mol] | unfolding free energy [kcal/mol]
7 | QDWLTFQKKHITNTRDVDCDNILSTNLFHCKDKNTFIYSRPEPVKAICKGIIASKNVLTTSEFYLSDCNVTSRPCKYKLKKSTNKFCVTCENQAPVHFVGVGSC [M23L] | 2.89 | 9.32

Same assay, conditions: Lithobates pipiens; pH 3.5; Thermal; DSC; MES 100 mM; reversible: yes; structure 1ONC; whole UniProt chain shown

Row | Variant | Tm [°C] | change of melting temperature, mutant - wild type (higher = more stable) [°C] | heat capacity change of unfolding [kcal/mol/K] | unfolding enthalpy (calorimetric) [kcal/mol] | unfolding enthalpy (van 't Hoff) [kcal/mol]
8 | QDWLTFQKKHITNTRDVDCDNILSTNLFHCKDKNTFIYSRPEPVKAICKGIIASKNVLTTSEFYLSDCNVTSRPCKYKLKKSTNKFCVTCENQAPVHFVGVGSC [M23L] | 74.7 | -6.9 | 1.48 | 103 | 99.8

Same assay, conditions: Lithobates pipiens; pH 4; Thermal; DSC; MES 100 mM; reversible: yes; structure 1ONC; whole UniProt chain shown

Row | Variant | Tm [°C] | change of melting temperature, mutant - wild type (higher = more stable) [°C] | heat capacity change of unfolding [kcal/mol/K] | unfolding enthalpy (calorimetric) [kcal/mol] | unfolding enthalpy (van 't Hoff) [kcal/mol]
9 | QDWLTFQKKHITNTRDVDCDNILSTNLFHCKDKNTFIYSRPEPVKAICKGIIASKNVLTTSEFYLSDCNVTSRPCKYKLKKSTNKFCVTCENQAPVHFVGVGSC [M23L] | 80.7 | -6.1 | 1.34 | 112 | 115

Same assay, conditions: Lithobates pipiens; pH 5; 25 °C; Thermal; DSC; MES 100 mM; reversible: yes; structure 1ONC; whole UniProt chain shown

Row | Variant | ddG of mutation (higher = less stable) [kcal/mol] | unfolding free energy [kcal/mol]
10 | QDWLTFQKKHITNTRDVDCDNILSTNLFHCKDKNTFIYSRPEPVKAICKGIIASKNVLTTSEFYLSDCNVTSRPCKYKLKKSTNKFCVTCENQAPVHFVGVGSC [M23L] | 2.65 | 11.5

Same assay, conditions: Lithobates pipiens; pH 5; Thermal; DSC; MES 100 mM; reversible: yes; structure 1ONC; whole UniProt chain shown

Row | Variant | Tm [°C] | change of melting temperature, mutant - wild type (higher = more stable) [°C] | heat capacity change of unfolding [kcal/mol/K] | unfolding enthalpy (calorimetric) [kcal/mol] | unfolding enthalpy (van 't Hoff) [kcal/mol]
11 | QDWLTFQKKHITNTRDVDCDNILSTNLFHCKDKNTFIYSRPEPVKAICKGIIASKNVLTTSEFYLSDCNVTSRPCKYKLKKSTNKFCVTCENQAPVHFVGVGSC [M23L] | 82.3 | -6 | 1.43 | 115 | 117

Same assay, conditions: Lithobates pipiens; pH 6; 25 °C; GdnHCl; CD; MES 100 mM; reversible: yes; structure 1ONC; whole UniProt chain shown

Row | Variant | ddG of mutation (higher = less stable) [kcal/mol] | denaturant m value [kcal/mol/M] | denaturant midpoint (higher = more stable) [M] | unfolding free energy [kcal/mol]
12 | QDWLTFQKKHITNTRDVDCDNILSTNLFHCKDKNTFIYSRPEPVKAICKGIIASKNVLTTSEFYLSDCNVTSRPCKYKLKKSTNKFCVTCENQAPVHFVGVGSC [M23L] | 3.06 | 3.25 | 3.4 | 11

Same assay, conditions: Lithobates pipiens; pH 6; 25 °C; GdnHCl; Fluorescence; MES 100 mM; reversible: yes; structure 1ONC; whole UniProt chain shown

Row | Variant | ddG of mutation (higher = less stable) [kcal/mol] | denaturant m value [kcal/mol/M] | denaturant midpoint (higher = more stable) [M] | unfolding free energy [kcal/mol]
13 | QDWLTFQKKHITNTRDVDCDNILSTNLFHCKDKNTFIYSRPEPVKAICKGIIASKNVLTTSEFYLSDCNVTSRPCKYKLKKSTNKFCVTCENQAPVHFVGVGSC [M23L] | 2.63 | 3.3 | 3.4 | 11.2

Same assay, conditions: Lithobates pipiens; pH 6; 25 °C; Thermal; DSC; MES 100 mM; reversible: yes; structure 1ONC; whole UniProt chain shown

Row | Variant | ddG of mutation (higher = less stable) [kcal/mol] | unfolding free energy [kcal/mol]
14 | QDWLTFQKKHITNTRDVDCDNILSTNLFHCKDKNTFIYSRPEPVKAICKGIIASKNVLTTSEFYLSDCNVTSRPCKYKLKKSTNKFCVTCENQAPVHFVGVGSC [M23L] | 2.65 | 11.5

Same assay, conditions: Lithobates pipiens; pH 6; Thermal; DSC; MES 100 mM; reversible: yes; structure 1ONC; whole UniProt chain shown

Row | Variant | Tm [°C] | change of melting temperature, mutant - wild type (higher = more stable) [°C] | heat capacity change of unfolding [kcal/mol/K] | unfolding enthalpy (calorimetric) [kcal/mol] | unfolding enthalpy (van 't Hoff) [kcal/mol]
15 | QDWLTFQKKHITNTRDVDCDNILSTNLFHCKDKNTFIYSRPEPVKAICKGIIASKNVLTTSEFYLSDCNVTSRPCKYKLKKSTNKFCVTCENQAPVHFVGVGSC [M23L] | 82.8 | -5.9 | 1.29 | 115 | 112

Same assay, conditions: Lithobates pipiens; pH 7; 25 °C; Thermal; DSC; MES 100 mM; reversible: yes; structure 1ONC; whole UniProt chain shown

Row | Variant | ddG of mutation (higher = less stable) [kcal/mol] | unfolding free energy [kcal/mol]
16 | QDWLTFQKKHITNTRDVDCDNILSTNLFHCKDKNTFIYSRPEPVKAICKGIIASKNVLTTSEFYLSDCNVTSRPCKYKLKKSTNKFCVTCENQAPVHFVGVGSC [M23L] | 2.22 | 11.5

Same assay, conditions: Lithobates pipiens; pH 7; Thermal; DSC; MES 100 mM; reversible: yes; structure 1ONC; whole UniProt chain shown

Row | Variant | Tm [°C] | change of melting temperature, mutant - wild type (higher = more stable) [°C] | heat capacity change of unfolding [kcal/mol/K] | unfolding enthalpy (calorimetric) [kcal/mol] | unfolding enthalpy (van 't Hoff) [kcal/mol]
17 | QDWLTFQKKHITNTRDVDCDNILSTNLFHCKDKNTFIYSRPEPVKAICKGIIASKNVLTTSEFYLSDCNVTSRPCKYKLKKSTNKFCVTCENQAPVHFVGVGSC [M23L] | 82 | -5.8 | 1.46 | 115 | 118

Same assay, conditions: Lithobates pipiens; pH 8; 25 °C; Thermal; DSC; MES 100 mM; reversible: yes; structure 1ONC; whole UniProt chain shown

Row | Variant | ddG of mutation (higher = less stable) [kcal/mol] | unfolding free energy [kcal/mol]
18 | QDWLTFQKKHITNTRDVDCDNILSTNLFHCKDKNTFIYSRPEPVKAICKGIIASKNVLTTSEFYLSDCNVTSRPCKYKLKKSTNKFCVTCENQAPVHFVGVGSC [M23L] | 2.39 | 10.6

Same assay, conditions: Lithobates pipiens; pH 8; Thermal; DSC; MES 100 mM; reversible: yes; structure 1ONC; whole UniProt chain shown

Row | Variant | Tm [°C] | change of melting temperature, mutant - wild type (higher = more stable) [°C] | heat capacity change of unfolding [kcal/mol/K] | unfolding enthalpy (calorimetric) [kcal/mol] | unfolding enthalpy (van 't Hoff) [kcal/mol]
19 | QDWLTFQKKHITNTRDVDCDNILSTNLFHCKDKNTFIYSRPEPVKAICKGIIASKNVLTTSEFYLSDCNVTSRPCKYKLKKSTNKFCVTCENQAPVHFVGVGSC [M23L] | 79.1 | -6.3 | 1.36 | 110 | 109
